In the nanobody polyreactivity screen of Harvey et al. (2022):

Assay: yeast display, Sf9 membrane polyspecificity reagent, FACS + sequencing; frameworks hold sequencing errors
In short: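 Nanobodies from a synthetic yeast display library (Saccharomyces cerevisiae BJ5465), induced 36–48 hours with galactose, were stained 1 hour at 4 °C with 10% biotinylated, detergent-solubilized Sf9 membrane reagent, enriched on streptavidin microbeads, then FACS-sorted. Anti-HA (expression) and streptavidin (reagent binding) fluorescence set low and high (top ~1%) gates. Polyreactivity labels come from the gate of origin. Genes were colony-PCR amplified, MiSeq 2 × 250 sequenced and filtered by CDR length.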

| Sequence | polyreactivity (PSR sort gate) |
| --- | --- |
| QVQLVESGGGLVQAGGSLRLSCAASGYIFYDNAMGWYRQAPVKERELVAAISASGGDTYYADSVKGRFTISRDNAKNTVYLQMNSLKPDDTAVYYCAADLITYAMEYWGQGTQVTVSS | low polyreactivity |
| QVQLVESGGGLVQAGGSLRLSCAASGSTFKGYAMGWYRQAPGKERELVAAITWIGGSTTYADSVKGRFTISCDNAKNTVYLQMNSLKPEVTAVYYCAADNFWYFLSATEDYWGQGTQVTVSS | low polyreactivity |
| QVQLVESGGGLVQAGGSLRLSCAASGSTFLRYAMGWYRPAPGKERELVAAISWSGGTTYYADSVKGRFTISRDNAKNTVYLQMNSLKPEDTAVYYCNTASWRAQYYYWGQGTQVTVSS | high polyreactivity |
| QVQLVESGGGLVQAGGSLRLSCAASGRTFGFNVMGWYRQAPGKEREFVAAITRSGGSTYYADSVKGRFTISRDIAKNTVYLQMNSLKPEDTAVYSCAAYKFSARYYYWGQGTQVTVSS | high polyreactivity |
| QVQLVESGGGLVQAGGSLRLSCAASGSIFNYSAMGWYRQAPGKERELVAAITTSGGNTYYADSVQGRFTISRDNAKNTVYLQMNSLKPEDSAVYYCARTVSRYGTGNMDYWGQGTKVTVSS | low polyreactivity |
| QVQLVESGGGLVQAGGSLRLSCAASGSIFGDNAMAWYRQAPGKERELVARISSGGNTYYADSVKGRFTISRDNAKNTVYLQMNSLKPEDTAVYYCAAAIKVRYKKFPYYYWGQGTQVTVSS | high polyreactivity |
| QVQLVESGGGLVQAGGSLRLSCAASGSIFAVYAMGWYRQAPGKERELVAASSTDYAESVKGRFTISRDNAKNTVFLQLNRLKPEDTAVYYCAKVGFGIPGGFYYWGQGTQVTVSS | low polyreactivity |
| QVQLVESGGGLVQAGGSLRISCAASGRTSHAYAMGWYRQAPGKERELVAAITRVTSTYYADSVKGRFTISRDNAKNTVYLQMNSLKPEDTAVYYCAAGKGYYRSDYWGQGTQVTVSS | low polyreactivity |
| QVQLVESGVRLVQAGGSHRLSCAASARTFYPNAMGWYRQAPGKEREFVARISDSGGSSYYADSVKGRFTISRDNAKNTVYLQMNSLKPEDTAVYYCAADYVDPRVNEYDYWGQGTQVTVST | low polyreactivity |
| QVQLEESGGGLVQAGGSLRLSCAASGFTFTRNAMGWYRQAPGKERELVAAISRGGSTNYADSVQGRFRISSDNAKNTVYLQMNSLKPEDTAVYYCAKVRTRATPGVDYYYWGQGTQVTVSS | high polyreactivity |
| QDQLVESGGGLVQAGGSLRLSCAASVSIFWSYAMGRSRQAPGKEMELVASITRSGGSTYYADSVKGRFTISRDNAKNTVYLQMNSLKPEDTAVYYCNARRTTRWGSSKYEYDYCGQGTQVTVSS | high polyreactivity |
| QVQLVESGGGLVQEGGSHRLSCAASASTFWSYTMGWYRQAPGKERELVAAISPSGGSTSYADSVKGRFTISRDHAKNTVYLQMNSLKPEDTAVYYGAADDRYGSRYSYWGHGTQVTVSS | high polyreactivity |
| QVQLVESGGGLVQAGGSLRLSCAASGSTIISYAMGWYRQAPGKERELVAAISSGGGRTSYADSVKGRFTISRDNAKNTVYLQMNSLKPEDTAVYYCNTKQLPYAEGYWGQGTQVTVSS | low polyreactivity |
| QVQLVESGGGLVQAGGSLRLSCAASGITFGSYAMGWYRQAPGKERELVAAITSGGGTNYADSVKGRFTISRDNPKNTVYLQMNSLKPEDTAVYYCAARYYYLGTRYGYWGQGTQVTVSS | low polyreactivity |
| QVQLVESGGGLVQAGGSLRLSCAASGSIFGGYAMGWYRQAPGKERELVATSYADSVKGRFTISRDIAKNTVYLQMNSLKPEDTAVYYCAADPPLEGVHGYNYWGQGTQVTVSS | low polyreactivity |
| QVQLVESGGGLVQAGGSLRLSCAASGITFSWNAMGRYRQAPGKERELVASITENTGCTYYADSVKGRFTISRDNAKNTVYLQMNSLKPEDTAVDYCWYTQNTLGNYWGQGTQVTVSS | low polyreactivity |
| QVQLQESGGGLVQACGSLRLSCAASGYISHADEMGWYRQAPGKEHELVASISNGGSTNYADSVKGRFTMSRDNAKNTVYLQMNSLKSEDTAVYYCAAWTGQVDIHYYWGQGTKVTVSS | low polyreactivity |
| QVQLVESGGGLVQAGGSLRLSCAASGRIFRDNAMGWYRQAPGKERELVAAITSSGGSTNYADSVKGRFTISRDNAKNTVYLQMNSLKPEDTAVYYCNTDRLGAARYDYWGQGTQVTVSS | low polyreactivity |
